# Laboratory results as given in paper PMC3170560.
# B1: mBnHO1 (mature BnHO1, haem oxygenase-1) (Brassica napus) (protein)
# chain: ATAAEKQKKKRYPGESKGFVEEMRFVAMRLHTKEQAKEGEKETKAPEERPVAKWEPTVEGYLRFLVDSKLVYDTLEEIIGQSTFPTYAEFKNTGLERAEKLDTDLKWFKEQGYEIPEPTATGKKYSQYLKDLADKDPPSFICHFYNIYFAHSAGGRMIGRKVAERILDNRELEFYKWDGDLSELLQNVREKLNKVAEEWTREEKNHCLVGDRESFKYSGEILRLILS
# Substrate: C=CC1=C(C)C2=Cc3c(C=C)c(C)c4[n]3[Fe]([Cl])[n]3c(c(C)c(CCC(=O)O)c3=CC3=NC(=C4)C(C)=C3CCC(=O)O)=CC1=N2
# Test: purified protein
# Conditions: haemin 1-20 μM, NADPH added to start, 0.1 M HEPES-NaOH pH 7.2
protein,measurement,value
B1,Km,2.52 µM
